Tests used:
[1] = molecular target: iLight (evolved photosensory core module of Idiomarina sp. bacterial phytochrome IsPadC) (Idiomarina sp. A28L)
[2] = molecular target: iLight (evolved photosensory core module of Idiomarina sp. bacterial phytochrome IsPadC) (Idiomarina sp. A28L); remark: listed apart in the source
[3] = molecular target: iLight (evolved photosensory core module of Idiomarina sp. bacterial phytochrome IsPadC) (Idiomarina sp. A28L); assay: native gel or EMSA + SEC; Pfr state: purified protein illuminated with 660/15 nm light (2 mW/cm2, 0.5 h) in 20 mM HEPES pH 7.7, 300 mM NaCl; native PAGE 4-20% gradient gel, 20 ug per lane, run in darkness, ZnCl2 staining; SEC on HiLoad 16/600 Superdex 200 in darkness, protein at 1.9 mg/ml; step: dimers to tetramer
[4] = molecular target: iLight (evolved photosensory core module of Idiomarina sp. bacterial phytochrome IsPadC) (Idiomarina sp. A28L); assay: native gel or EMSA + SEC; Pr state: purified protein illuminated with 780/30 nm light (2 mW/cm2, 0.5 h) in 20 mM HEPES pH 7.7, 300 mM NaCl; native PAGE 4-20% gradient gel, 20 ug per lane, run in darkness, ZnCl2 staining; SEC on HiLoad 16/600 Superdex 200 in darkness, protein at 1.9 mg/ml
[5] = molecular target: iLight (evolved photosensory core module of Idiomarina sp. bacterial phytochrome IsPadC) (Idiomarina sp. A28L); remark: listed apart in the source
[6] = molecular target: wild-type IsPadC-PCM (photosensory core module of Idiomarina sp. A28L phytochrome-activated diguanylyl cyclase) (Idiomarina sp. A28L); assay: native gel or EMSA; native PAGE of Fig. 3f, 20 ug per lane, ZnCl2 staining for bound biliverdin; illumination state not told for this statement; step: monomers to dimer

Row | Substance | repression of the ColE-driven mCherry reporter in E. coli by LexA408-DBD-iLight-msfGFP, 660 nm light against darkness [1] [fold] | SEAP reporter production in HeLa cells with NLS-Gal4-DBD-iLight-VP16 after 48 h of 660 nm light against darkness, exogenous biliverdin from none (~20.5-fold) to 10 uM [2] [fold] | time course of SEAP reporter production in HeLa cells with NLS-Gal4-DBD-iLight-VP16, 660 nm light against darkness, 24 h (~19-fold) to 72 h [2] [fold] | stoichiometry N [3] | stoichiometry N [4] | RLuc8 reporter signal in livers of mice co-transfected with NLS-Gal4-DBD-iLight-VP16 and pG12-RLuc8, 24 h of 660 nm light against darkness [5] [fold] | stoichiometry N [6]
1 | iLight (evolved photosensory core module of Idiomarina sp. bacterial phytochrome IsPadC) (domain or fragment) | 115 | 65 to 70 | 70 | 4 | 2 | 6 | 
2 | wild-type IsPadC-PCM (photosensory core module of Idiomarina sp. A28L phytochrome-activated diguanylyl cyclase) (domain or fragment) |  |  |  |  |  |  | 2
